According to PMC6632053, “Incorporation of Putative Helix-Breaking Amino Acids in the Design of Novel Stapled Peptides: Exploring Biophysical and Cellular Permeability Properties” (Molecules, 2019):
Bridge positions count the residues as written; N and C are the ends. Square brackets hold non-standard residues; d marks the D form. Primed or numbered codes have the meaning given here. Lys(N3) = [N-]=[N+]=NCCCC[C@H](N)C(=O)O; NMeQ = CN[C@@H](CCC(N)=O)C(=O)O; R8 = C=CCCCCCC[C@@](C)(N)C(=O)O; dCba = N[C@H](CC1CCC1)C(=O)O; S5 = C=CCCC[C@](C)(N)C(=O)O; NMeA = CN[C@@H](C)C(=O)O; Cba′ = not defined here; Aib = CC(C)(N)C(=O)O; βAla = NCCC(=O)O

Molecular target: T1, human Mdm2 (1–125) (human)
T1 construct: Mdm2, human, residues 1-125; the stretch after the TEV site ENLYFQG of the fusion protein; No cleavage of the tags is described, so it is open whether the fusion or cleaved Mdm2 stood in the FP and ITC assays; also called purified recombinant human Mdm2 protein (amino acids 1–125); source: E. coli BL21 (DE3) Rosetta T1R, purified (Ni-NTA, gel filtration)
T1 sequence (chain, as listed by the source): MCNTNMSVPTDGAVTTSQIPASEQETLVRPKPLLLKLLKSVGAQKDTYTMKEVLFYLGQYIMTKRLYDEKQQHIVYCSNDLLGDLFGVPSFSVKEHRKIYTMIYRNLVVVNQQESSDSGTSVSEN
Test: ITC; 100–200 µM peptide titrated into 20 µM Mdm2 (1–125), 40 injections of 1 µL (reverse titration for insoluble peptides); 1× PBS pH 7.2, 3% DMSO, 0.001% Tween-20; duplicates
Settings: both partners purified

**Q.** Which “stoichiometry N” value does the source give for Ac-LTF[R8]EYWQL[Cba′][S5]SAA-NH2 (staple 4-11; reading uncertain) [MP-292] here?
**A.** 1

Molecular target: T1, human Mdm2 (1–125)
Test: fluorescence polarisation; competition: unlabeled peptide titrated against the complex of 250 nM Mdm2 (1–125) and 50 nM FAM-labeled 12/1 peptide; apparent Kd from the tracer's Kd of […] nM; PBS pH 7.4, 0.1% Tween 20; triplicate
Settings: both partners purified

**Q.** Ac-LTF[R8]EYWAL[Cba′][S5]SAA-NH2 (staple 4-11; reading uncertain) [MP-292 Q8A] was tested. Which Kd did it give?
**A.** 26.5 nM

**Q.** Which Kd does the source give for Ac-LTF[R8][dE]YWQL[Cba′][S5]SAA-NH2 (staple 4-11; reading uncertain) [MP-292 E5(D-Glu)] here?
**A.** 32 nM

**Q.** For Ac-LTF[R8]EYWQL[Cba′][S5]SA[dA]-NH2 (staple 4-11; reading uncertain) [MP-292 A14(D-Ala)], which Kd is on record?
**A.** 18 nM

**Q.** With Ac-LTF[R8]EYWQL[Cba′][S5]AAA-NH2 (staple 4-11; reading uncertain) [MP-292 S12A] as the binder, how does the Kd read?
**A.** 20.4 nM

**Q.** Ac-LTF[R8]EYWQL[Cba′][S5][dS]AA-NH2 (staple 4-11; reading uncertain) [MP-292 S12(D-Ser)] was tested. Which Kd did it give?
**A.** 8.6 nM

**Q.** How did the Kd turn out when Ac-LTF[Aib]EYWQL[Cba′][Aib]SAA-NH2 (reading uncertain) [Linear Parent (MP-189)] was run?
**A.** 43.1 nM

**Q.** Which Kd does the source give for Ac-LTF[R8]EYWQL[Cba′][S5]S[dA]A-NH2 (staple 4-11; reading uncertain) [MP-292 A13(D-Ala)] here?
**A.** 17 nM

**Q.** Which Kd does the source give for Ac-LTF[R8]EYWQL[Cba′][S5]SAA-NH2 (staple 4-11; reading uncertain) [MP-292] here?
**A.** 18.6 nM

**Q.** How did the Kd turn out when Ac-L[dT]F[R8]EYWQL[Cba′][S5]SAA-NH2 (staple 4-11; reading uncertain) [MP-292 T2(D-Thr)] was run?
**A.** 136 nM

**Q.** For Ac-LTF[Aib]EYWQ[dL][Cba′][Aib]SAA-NH2 (reading uncertain) [Linear L9(D-Leu)], which Kd is on record?
**A.** 88 nM

**Q.** How did the Kd turn out when Ac-LTF[R8]EAWQL[Cba′][S5]SAA-NH2 (staple 4-11; reading uncertain) [MP-292 Y6A] was run?
**A.** 38.9 nM

**Q.** For Ac-LTF[Aib][dE]YWQL[Cba′][Aib]SAA-NH2 (reading uncertain) [Linear E5(D-Glu)], which Kd is on record?
**A.** 135 nM

**Q.** Ac-LTF[R8]EYW[dQ]L[Cba′][S5]SAA-NH2 (staple 4-11; reading uncertain) [MP-292 Q8(D-Gln)] was tested. Which Kd did it give?
**A.** 22 nM

**Q.** Ac-LTF[R8]EYWQL[dCba][S5]SAA-NH2 (staple 4-11) [MP-292 Cba10(D-Cba)] was tested. Which Kd did it give?
**A.** 1650 nM

**Q.** For Ac-[dL]TF[R8]EYWQL[Cba′][S5]SAA-NH2 (staple 4-11; reading uncertain) [MP-292 L1(D-Leu)], which Kd is on record?
**A.** 31 nM

**Q.** With Ac-LTF[R8]EYWQA[Cba′][S5]SAA-NH2 (staple 4-11; reading uncertain) [MP-292 L9A] as the binder, how does the Kd read?
**A.** 12 nM

**Q.** With Ac-LTF[R8]EY[dW]QL[Cba′][S5]SAA-NH2 (staple 4-11; reading uncertain) [W6(D-Trp) (MP-384)] as the binder, how does the Kd read?
**A.** 30 nM

**Q.** Which Kd does the source give for Ac-LTF[R8]EYAQL[Cba′][S5]SAA-NH2 (staple 4-11; reading uncertain) [MP-292 W7A] here?
**A.** 5090 nM

**Q.** Ac-LTF[R8]EYWQ[dL][Cba′][S5]SAA-NH2 (staple 4-11; reading uncertain) [MP-292 L9(D-Leu)] was tested. Which Kd did it give?
**A.** 30 nM

**Q.** For Ac-[dL]TF[Aib]EYWQL[Cba′][Aib]SAA-NH2 (reading uncertain) [Linear L1(D-Leu)], which Kd is on record?
**A.** 277 nM

**Q.** With Ac-LTF[R8]E[dY]WQL[Cba′][S5]SAA-NH2 (staple 4-11; reading uncertain) [MP-292 Y6 (D-Tyr)] as the binder, how does the Kd read?
**A.** 286 nM

**Q.** For Ac-LT[dF][R8]EYWQL[Cba′][S5]SAA-NH2 (staple 4-11; reading uncertain) [MP-292 F3(D-Phe)], which Kd is on record?
**A.** 6480 nM

Molecular target: T1, human Mdm2 (1–125)
Test: cell-based or functional assay
Settings: not given

**Q.** With Ac-LTF[R8]EYWQL[Cba′][S5]SAA-NH2 (staple 4-11; reading uncertain) [MP-292] as the binder, how does the “EC50, p53 responsive β-lactamase reporter in HCT116 cells, 2% serum (data not shown)” value read?
**A.** 700 nM

**Q.** What about the “EC50, p53 responsive β-lactamase reporter in HCT116 cells, 10% serum (data not shown)” value of the same binder?
**A.** 4200 nM

Molecular target: T1, human Mdm2 (1–125)
Test: fluorescence polarisation; competition: unlabeled peptide titrated against the complex of 250 nM Mdm2 (1–125) and 50 nM FAM-labeled 12/1 peptide; apparent Kd from the tracer's Kd of […] nM; PBS pH 7.4, 0.1% Tween 20; triplicate
Settings: both partners purified
Remark: another data set of the same source

**Q.** For Ac-[Lys(N3)][βAla]LTF[R8]EYWAP[Cba′][S5]SAA-NH2 (staple 6-13; reading uncertain) [MP-081 Q9P], which Kd is on record?
**A.** 77.1 nM

**Q.** Which Kd does the source give for Ac-[Lys(N3)][βAla]LTF[R8]EYW[NMeA]Q[Cba′][S5]SAA-NH2 (staple 6-13; reading uncertain) [MP-081 A8(N-methyl L-Ala)] here?
**A.** 671 nM

**Q.** Ac-[Lys(N3)][βAla]LTF[R8]GYWAQ[Cba′][S5]SAA-NH2 (staple 6-13; reading uncertain) [MP-081 E5G] was tested. Which Kd did it give?
**A.** 61.8 nM

**Q.** With Ac-[Lys(N3)][βAla]LTF[R8]EYWA[NMeQ][Cba′][S5]SAA-NH2 (staple 6-13; reading uncertain) [MP-081 Q9(N-methyl L-Gln)] as the binder, how does the Kd read?
**A.** 211 nM

**Q.** With Ac-[Lys(N3)][βAla]LTF[R8]EYWAQ[Cba′][S5]S[NMeA]A-NH2 (staple 6-13; reading uncertain) [MP-081 A13(N-methyl L-Ala)] as the binder, how does the Kd read?
**A.** 10 nM

**Q.** Ac-[Lys(N3)][βAla]LTF[R8]EYWAQ[Cba′][S5]SAA-NH2 (staple 6-13; reading uncertain) [MP-081] was tested. Which Kd did it give?
**A.** 19 nM

**Q.** How did the Kd turn out when Ac-[Lys(N3)][βAla]GTF[R8]EYWAQ[Cba′][S5]SAA-NH2 (staple 6-13; reading uncertain) [MP-081 L1G] was run?
**A.** 22.1 nM

**Q.** With Ac-[Lys(N3)][βAla]LTF[R8]EYWAG[Cba′][S5]SAA-NH2 (staple 6-13; reading uncertain) [MP-081 Q9G] as the binder, how does the Kd read?
**A.** 42 nM

**Q.** Ac-[Lys(N3)][βAla]PTF[R8]EYWAQ[Cba′][S5]SAA-NH2 (staple 6-13; reading uncertain) [MP-081 L1P] was tested. Which Kd did it give?
**A.** 21.9 nM

Molecular target: T1, human Mdm2 (1–125)
Test: cell-based or functional assay
Settings: not given
Remark: another data set of the same source

**Q.** Which “EC50, p53 responsive β-lactamase reporter in HCT116 cells (column Cellular)” value does the source give for Ac-LTF[R8]EYWQL[Cba′][S5]SAA-NH2 (staple 4-11; reading uncertain) [MP-292] here?
**A.** 540 nM

**Q.** Which “EC50, p53 responsive β-lactamase reporter in HCT116 cells (column Cellular)” value does the source give for Ac-LTF[R8]EYAQL[Cba′][S5]SAA-NH2 (staple 4-11; reading uncertain) [MP-292 W7A] here?
**A.** 8800 nM
